Data from patent US9689040B2, “Selective inhibitors of tumor-initiating cells” (Children's Medical Center Corporation, priority 2011, dated 2017).

Tests used:
BPLER cells [1] = test: Cell viability after drug treatment (CellTiterGlo / Trypan-Blue); type: cell-based, human; details: 24 hr; for sensitivity of BPLER relative to HMLER cells (viability): increasing doses; for relative viability of BPLER and HMLER cells: CellTiterGlo (FIG. 14)
BPE cells = details: at the indicated dose
BPLER cells [2] = test: Apoptosis (Annexin V/PI flow cytometry, caspase 3 and PARP cleavage immunoblot); type: cell-based, human; details: 24 hours
Protocol: BPLER were used as control. […] The percentage of double-positive cells is indicated.
To further define factors underlying such properties of BPLER cells, we first determined the molecular mechanism by which proteasome inhibition affects the growth of these cells.
Immunoblot was performed as described^41. Primary antibodies were as follows: cleaved Caspase 3 (Cell Signaling, rabbit polyclonal, 1:1000), PARP1 (Santa Cruz, rabbit polyclonal, 1:500), MCL1 (Cell Signaling, Rabbit polyclonal, 1:1000), Bim (Santa Cruz, rabbit polyclonal, 1:500), Bik (Cell Signaling, rabbit polyclonal, 1:1000), Puma (Cell Signaling, rabbit polyclonal, 1:1000), Noxa (Calbiochem, mouse monoclonal, 1:500), Bid (Santa Cruz, rabbit polyclonal, 1:500), Bad (Santa Cruz, rabbit polyclonal, 1:500). Antibodies were diluted in 5% milk in TBS-T and incubated O.N. at 4° C. Secondary mouse and rabbit HRP-conjugated antibodies were from Amersham. Protein signal was detected using the ECL Plus kit (Amersham). For flow cytometry, cells were stained as previously described^33, using the following fluorescent-conjugated antibodies: CD44 (BD Biosciences), CD24 (BD Biosciences), CD326 (ESA, Biolegend), Annexin V (Invitrogen). For immunofluorescence microscopy, cells were fixed in 2% PFA for 10 min, permeabilized with 1% Triton X in PBS for 5 min, and incubated with primary antibodies in 0.5% Triton X, 1% FBS in PBS for 30 min at RT. Antibodies were: CK18 (Santa Cruz, mouse monoclonal, 1:100) and CK14 (Millipore, mouse monoclonal, 1:100). After washing the cells were stained sequentially with AlexaFluor647-conjugated secondary antibody (Invitrogen, 1:200) and DAPI (Sigma, 1:5000). For immunohistochemistry, BPLER tumor sections were prepared from paraffin-embedded tissues, deparaffinized and treated with 10% citrate buffer for 15 min. Staining was performed using a BIOGENEX IHC DAB kit (Biogenex) following the manufacturer's protocol. Primary antibodies were: CK14 (Millipore, mouse monoclonal, 1:100), CK5 (Millipore, mouse monoclonal, 1:100), HH3 (Cell Signaling, rabbit polyclonal, 1:100), ER (Abcam, mouse monoclonal, 1:100), Vimentin (Invitrogen, mouse monoclonal 1:100), Ki67 (Millipore, mouse monoclonal, 1:100).

[3] = test system: BPE, HMLER and BPLER cells; test: Cell cycle distribution (propidium iodide DNA staining); details: BPE, HMLER and BPLER, 24 hours
BPLER cells [4] = test: Genome-wide siRNA lethality screen (primary screen), CellTiterGlo viability; type: cell-based, human; details: for MAD BPLER / Fold BPLER: siRNA pool against the gene; for MAD BPLER: MAD score of viability in BPLER cells; for Fold BPLER: fold viability in BPLER cells
HMLER cells = test: as above; type: cell-based, human; details: for MAD_HMLER / Fold_HMLER: primary screen, HMLER cells; for MAD_HMLER: MAD score; for MAD HMLER: MAD score of viability in HMLER cells; for Fold HMLER: fold viability in HMLER cells
BPLER cells [5] = test: Secondary (cherry-pick) screen with the 4 individual siRNAs of each pool; details: for Cherry_Score: secondary cherry-pick screen, 4 individual siRNAs of each pool
[6] = ratio of Fold_BPLER to Fold_HMLER
[7] = ratio of fold viability BPLER/HMLER
[8] = siRNA pool against the gene, fold viability
[9] = secondary screen with the 4 individual siRNAs of each pool

O=C(O)C(=O)CBr [BRPA, 3-bromo-pyruvic acid]
sensitivity of BPLER relative to HMLER cells (viability) (BPLER cells [1]): more sensitive

CC(=O)N(O)CCCCCNC(=O)CCC(=O)N(O)CCCCCNC(=O)CCC(=O)N(O)CCCCCN [Deferoxamine]
relative viability of BPLER and HMLER cells (BPLER cells [1]): not active

COc1ccc([C@@H]2CC(=O)c3c(O)cc(O)cc3O2)cc1O [Hesperetin]
relative viability of BPLER and HMLER cells (BPLER cells [1]): not active

NC(N)=NOCC[C@H](N)C(=O)O [L-cavananine]
relative viability of BPLER and HMLER cells (BPLER cells [1]): not active

COc1ccc2cc(CCC(C)=O)ccc2c1 [Nabumetone]
relative viability of BPLER and HMLER cells (BPLER cells [1]): not active

O=C(CCCCCCC(=O)Nc1ccccc1)NO [Vorinostat, N′-hydroxy-N-phenyl-octanediamide]
sensitivity of BPLER relative to HMLER cells (viability) (BPLER cells [1]): selectively lethal for BPLER compared to HMLER
BPE viability (BPE cells): no effect on BPE viability

COc1cccc2c1C(=O)c1c(O)c3c(c(O)c1C2=O)C[C@@](O)(C(=O)CO)C[C@@H]3O[C@H]1C[C@H](N)[C@H](O)[C@H](C)O1 [doxorubicin]
sensitivity of BPLER relative to HMLER cells (viability) (BPLER cells [1]): responded similarly

COC(=O)Nc1nc2ccc(C(=O)c3cccs3)cc2[nH]1 [nocodazole]
activation of apoptosis by mitotic arrest (BPLER cells [2]): sufficient to activate apoptosis in BPLER cells
mitotic arrest [3]: underwent mitotic arrest

B1: TMED3 (nucleic acid, listed as Homo sapiens)
DNA: ATCCCCTTACATCCTCCTAGGACCCGGTCGGTAGTCGTCGCCCCAGCCCGCCGGGGGCGCAGCGCCCGAGCCGCGGCCCTCGAGACGGGACCGAGAGCATCATGGGCAGCACTGTCCCGCGCTCCGCCTCCGTGCTGCTTCTGCTGCTGCTCCTGCGCCGGGCCGAGCAGCCCTGCGGGGCCGAGCTCACCTTCGAGCTGCCGGACAACGCCAAGCAGTGCTTCCACGAGGAGGTGGAGCAGGGCGTGAAGTTCTCCCTGGATTACCAGGTCATCACTGGAGGCCACTACGATGTTGACTGCTATGTAGAGGACCCCCAGGGGAACACCATCTACAGAGAAACGAAGAAGCAGTACGACAGCTTCACGTACCGGGCTGAAGTCAAGGGCGTTTATCAGTTTTGCTTCAGTAATGAGTTTTCCACCTTCTCTCACAAGACCGTCTACTTTGACTTTCAAGTGGGCGATGAGCCTCCCATTCTCCCAGACATGGGGAACAGGGTCACAGCTCTCACCCAGATGGAGTCCGCCTGCGTGACCATCCATGAGGCTCTGAAAACGGTGATTGACTCCCAGACGCATTACCGGCTGCGGGAGGCCCAGGACCGGGCCCGAGCGGAAGACCTTAATAGCCGAGTCTCTTACTGGTCTGTTGGCGAGACGATTGCCCTGTTCGTGGTCAGCTTCAGTCAGGTGCTACTGTTGAAAAGCTTCTTCACAGAAAAACGACCCATCAGCAGGGCAGTCCACTCCTAGCCCCGGCATCCTGCTCTAGGGCCCCTCATGCCCCAGGCTGGAGCAGCTCTCCTAGGTCACAGCCTGCTGGGCTGGGTCGCGTAGCCCAGGGTGGAGGCAGAACGATGCTGCTGTGGTAGCCCTTTGCCTTTCATGCCCATGCTTGATTCTTGCACCTCAGCAGCTGAAGGTCTCAGAGACCAGTAATCAGAAGGCATCCGACTGCATTAAGTGTGCAGCGCTGAAAAGACATTTACAACTAGGCCAGGGATTAGCCACTGTGGGAGGGTGGACAGGCAATGGTTCAGTGGCCTGGCTGTTGGCAGGAACTCCAAGTGCCCAGGCCTCTTGGGCAGCTTAGGGCCCTGCCTCTGTTTCATGATGCATGGGTCATTTGTCTTGGGTGTCCTATCCCATATGGAGAAGAAAGGGGCTCTAAGTTCTGGCTCTTCTTTCTTTGGGGTTCTCTGTACCTGAGGAAACCAGGCCCTGGGTGACTTTGCAGATCTGCTCACCCTCGGTGAGCAACAGTGTCAGCCATGCAAGCAGGACAGAATGGTGACTGGGTGCCCTTGGTGAGCTGTGTATTTCCTAGGAGGTAGAAAACTGTGGGAAACTGTGGCTAATAAAAACTAAGTGTGAGCGTCCTGGAGAAAAAAAAAAAAAAAAAAAAAAAAAAAAAAAAAAAAAAAAAAAAAAAA
Ratio BPLER/HMLER (BPLER cells [4]; [6]): 0.68
Ratio BPLER/HMLER (BPLER cells [4]; [7]): 0.68
MAD BPLER (BPLER cells [4]): −2.93
Fold BPLER (BPLER cells [4]): 0.537
MAD_HMLER (HMLER cells; siRNA pool against the gene): −1.28
Fold_HMLER (HMLER cells; [8]): 0.80
MAD HMLER (HMLER cells; siRNA pool against the gene): −1.28
Fold HMLER (HMLER cells; siRNA pool against the gene): 0.80
Cherry_Score (BPLER cells [5]): 2
Cherry Score (BPLER cells [5]; [9]): 2

B2: NM_194324 (nucleic acid, listed as Homo sapiens)
DNA: AGCACTGCAGGGCTCTGGGCGGGAAGGCTAACCTGGTGCGGAGCCAGCCTGGGTCTCAGCCCCGCGTACGGCCTTTCACGAGTCTTCAAGCCTTCAGGCTTTCTTCTAGTCAAGATGAGTGATAAACCAGACTTGTCGGAAGTGGAGAAGTTTGACAGGTCAAAACTGAAGAAAACTAATACTGAAGAAAAAAATACTCTTCCCTCAAAGGAAACTATCCAGCAGGAGAAAGAGTGTGTTCAAACATCATAAAATGGGGATCTCCTCCAAAGAGCAGATTTCAGCATTGCCTGACAGTCTTGGTTTTAGGCTTGTTTTTTTGTAAACCTGTGTGTTTGTAGAGATTTCAGACATCTTCTGATTTCTTCTCACCTATATTCCCTGGTTAAGAGGTCAGGGGTAGTGAATGTTTCCTTAAGTTCCTTTTTAAACTTCCCATTGGTATGTAAATTCCAAATGGCAGATGCTGTCAATAACCTTGCCATGGATGACCTTTGTGTAGGTAGTCCTTGCACCTCATGCAGGATAAGCCAATTTTAACTTTCTACAATGGGTGCCTCAATAGTTTCATAATCTTCATGAAGTTGCATCCTTTGGCAGCTTCTTACAGTTTATTTTCACTTCCAATGTAGCAATAAAATAATAAATATAATCGTTGTTGTCTGAAAAAAAAAAAAAAAAAA
Ratio (BPLER cells [4]; R, BPLER versus HMLER, primary screen): 0.74
Fold_HMLER (HMLER cells; siRNA pool): 0.87
Cherry Score (BPLER cells [5]; validation screen with individual siRNAs of each pool): 1

B3: TMEM14B (nucleic acid, listed as Homo sapiens)
DNA: TTTCTCCCCGCCCTGCCGCGGCCCCGGGGCGCAGCGCGCACGCAATCGCGTTTCCGGAGAGACCTGGCTGCTGTGTCCCGCGGCTTGCGCTCCGTAGTGGACTCCGCGGGCCTTCGGCAGATGCAGGCCTGGGGTAGTCTCCTTTCTGGACTGAGAAGAGAAGAATGGAGAAGCCCCTCTTCCCATTAGTGCCTTTGCATTGGTTTGGCTTTGGCTACACAGCACTGGTTGTTTCTGGTGGGATCGTTGGCTATGTAAAAACAGGCAGCGTGCCGTCCCTGGCTGCAGGGCTGCTCTTCGGCAGTCTAGCCGGCCTGGGTGCTTACCAGCTGTATCAGGATCCAAGGAACGTTTGGGGTTTCCTAGCCGCTACATCTGTTACTTTTGTTGGTGTTATGGGAATGAGATCCTACTACTATGGAAAATTCATGCCTGTAGGTTTAATTGCAGGTGCCAGTTTGCTGATGGCCGCCAAAGTTGGAGTTCGTATGTTGATGACATCTGATTAGCAGAAGTCATGTTCCAGCTTGGACTCATGAAGGATTAAAAATCTGCATCTTCCACTATTTTCAATGTATTAAGAGAAATAAGTGCAGCATTTTTGCATCTGACATTTTACCTAAAAAAAAAAAGACACCAAATTTGGCGGAGGGGTGGAAAATCAGTTGTTACCATTATAACCCTACAGAGGTGGTGAGCATGTAACATGAGCTTATTGAGACCATCATAGAGATCGATTCTTGTATATTGATTTTATCTCTTTCTGTATCTATAGGTAAATCTCAAGGGTAAAATGTTAGGTGTTGACATTGAGAACCCTGAAACCCCATTCCCTGCTCAGAGGAACAGTGTGAAAAAAAATCTCTTGAGAGATTTAGAATATCTTTTCTTTTGCTCATCTTAGACCACAGACTGACTTTGAAATTATGTTAAGTGAAATATCAATGAAAATAAAGTTTACTATAAATAATAAAAAAAAAAAAAAAAAA
Ratio BPLER/HMLER (BPLER cells [4]; [6]): 0.71
Ratio BPLER/HMLER (BPLER cells [4]; [7]): 0.71
MAD BPLER (BPLER cells [4]): −1.99
Fold BPLER (BPLER cells [4]): 0.636
MAD_HMLER (HMLER cells; siRNA pool against the gene): −0.56
Fold_HMLER (HMLER cells; [8]): 0.90
MAD HMLER (HMLER cells; siRNA pool against the gene): −0.56
Fold HMLER (HMLER cells; siRNA pool against the gene): 0.90
Cherry_Score (BPLER cells [5]): 1
Cherry Score (BPLER cells [5]; [9]): 1
